Key:
Conditions in all cases: protein: recombinant; tags: His tag removed by TEV; single strand
[1] = biological target: T1, hnRNPA2 1-189 (tandem RRMs) (UniProt P22626-2 1-189); assay: ITC; 4600 uM protein, 115 uM RNA; N 0.785; ITC: 20 mM NaPi pH 6.75, 150 mM NaCl, 25 C (also 20 mM KPi pH 6.75; 20 mM MES pH 6.7, 150 mM NaCl, 10 mM CaCl2); protein in syringe, RNA in cell
[2] = biological target: T1, hnRNPA2 1-189 (tandem RRMs); assay: ITC; 7000 uM protein, 800 uM RNA; N 0.798; ITC: 20 mM NaPi pH 6.75, 150 mM NaCl, 25 C (also 20 mM KPi pH 6.75; 20 mM MES pH 6.7, 150 mM NaCl, 10 mM CaCl2); protein in syringe, RNA in cell
[3] = biological target: T1, hnRNPA2 1-189 (tandem RRMs); assay: ITC; 7000 uM protein, 800 uM RNA; N 0.921; ITC: 20 mM NaPi pH 6.75, 150 mM NaCl, 25 C (also 20 mM KPi pH 6.75; 20 mM MES pH 6.7, 150 mM NaCl, 10 mM CaCl2); protein in syringe, RNA in cell
[4] = biological target: T1, hnRNPA2 1-189 (tandem RRMs); assay: ITC; 20 mM KPi pH 6.75, no NaCl; N about 1; ITC: 20 mM NaPi pH 6.75, 150 mM NaCl, 25 C (also 20 mM KPi pH 6.75; 20 mM MES pH 6.7, 150 mM NaCl, 10 mM CaCl2); protein in syringe, RNA in cell
[5] = biological target: T1, hnRNPA2 1-189 (tandem RRMs); assay: ITC; 20 mM NaPi pH 6.75, 150 mM NaCl; N about 1; ITC: 20 mM NaPi pH 6.75, 150 mM NaCl, 25 C (also 20 mM KPi pH 6.75; 20 mM MES pH 6.7, 150 mM NaCl, 10 mM CaCl2); protein in syringe, RNA in cell
[6] = biological target: T1, hnRNPA2 1-189 (tandem RRMs); assay: ITC; ITC: 20 mM NaPi pH 6.75, 150 mM NaCl, 25 C (also 20 mM KPi pH 6.75; 20 mM MES pH 6.7, 150 mM NaCl, 10 mM CaCl2); protein in syringe, RNA in cell

T1 sequence (P22626 other isoform, or with tags, fused parts or gaps): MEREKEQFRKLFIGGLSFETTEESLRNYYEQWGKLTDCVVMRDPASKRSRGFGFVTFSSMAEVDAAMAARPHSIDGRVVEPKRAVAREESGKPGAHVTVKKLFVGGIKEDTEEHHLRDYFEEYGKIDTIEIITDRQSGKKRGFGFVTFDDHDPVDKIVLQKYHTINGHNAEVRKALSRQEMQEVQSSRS

Binder | Kd [1] [µM] | Kd [2] [µM] | Kd [3] [µM] | Kd [4] [µM] | Kd [5] [µM] | Kd [6] [µM]
GCCAAGGAGCC (ssRNA) [rA2RE11] | 19.8 ± 0.4 | 143 ± 10 | 139 ± 10 | ~35 | ~52 | –
AAGGACUAGC (ssRNA) [Wu_10mer] | – | – | – | – | – | 0.228 ± 0.002
